Results reported in article PMC13123425.

Biological target: T1, human VWF-A2 fragment
T1 chain: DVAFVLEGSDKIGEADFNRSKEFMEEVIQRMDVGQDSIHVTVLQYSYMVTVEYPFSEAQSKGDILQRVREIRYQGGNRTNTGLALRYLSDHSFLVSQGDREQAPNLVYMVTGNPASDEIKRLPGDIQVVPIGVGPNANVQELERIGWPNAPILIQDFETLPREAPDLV
Assay: microscale thermophoresis
Design: unit not given beside the values
Conditions: chain shown with the change;; parent: est. 6.2e-9; read off a plot

B1: human recombinant wild-type complement factor H, P08603 W1183R (protein)
chain: EDCNELPPRRNTEILTGSWSDQTYPEGTQAIYKCRPGYRSLGNVIMVCRKGEWVALNPLRKCQKRPCGHPGDTPFGTFTLTGGNVFEYGVKAVYTCNEGYQLLGEINYRECDTDGWTNDIPICEVVKCLPVTAPENGKIVSSAMEPDREYHFGQAVRFVCNSGYKIEGDEEMHCSDDGFWSKEKPKCVEISCKSPDVINGSPISQKIIYKENERFQYKCNMGYEYSERGDAVCTESGWRPLPSCEEKSCDNPYIPNGDYSPLRIKHRTGDEITYQCRNGFYPATRGNTAKCTSTGWIPAPRCTLKPCDYPDIKHGGLYHENMRRPYFPVAVGKYYSYYCDEHFETPSGSYWDHIHCTQDGWSPAVPCLRKCYFPYLENGYNQNYGRKFVQGKSIDVACHPGYALPKAQTTVTCMENGWSPTPRCIRVKTCSKSSIDIENGFISESQYTYALKEKAKYQCKLGYVTADGETSGSITCGKDGWSAQPTCIKSCDIPVFMNARTKNDFTWFKLNDTLDYECHDGYESNTGSTTGSIVCGYNGWSDLPICYERECELPKIDVHLVPDRKKDQYKVGEVLKFSCKPGFTIVGPNSVQCYHFGLSPDLPICKEQVQSCGPPPELLNGNVKEKTKEEYGHSEVVEYYCNPRFLMKGPNKIQCVDGEWTTLPVCIVEESTCGDIPELEHGWAQLSSPPYYYGDSVEFNCSESFTMIGHRSITCIHGVWTQLPQCVAIDKLKKCKSSNLIILEEHLKNKKEFDHNSNIRYRCRGKEGWIHTVCINGRWDPEVNCSMAQIQLCPPPPQIPNSHNMTTTLNYRDGEKVSVLCQENYLIQEGEEITCKDGRWQSIPLCVEKIPCSQPPQIEHGTINSSRSSQESYAHGTKLSYTCEGGFRISEENETTCYMGKWSSPPQCEGLPCKSPPEISHGVVAHMSDSYQYGEEVTYKCFEGFGIDGPAIAKCLGEKWSHPPSCIKTDCLSLPSFENAIPMGEKKDVYKAGEQVTYTCATYYKMDGASNVTCINSRWTGRPTCRDTSCVNPPTVQNAYIVSRQMSKYPSGERVRYQCRSPYEMFGDEEVMCLNGNWTEPPQCKDSTGKCGPPPPIDNGDITSFPLSVYAPASSVEYQCQNLYQLEGNKRITCRNGQWSEPPKCLHPCVISREIMENYNIALRRTAKQKLYSRTGESVEFVCKRGYRLSSRSHTLRTTCWDGKLEYPTCAKR
- EC50: 2.3e-09
